Assay results reported in paper PMC9571070, “Three-Fluorophore FRET Enables the Analysis of Ternary Protein Association in Living Plant Cells” (Plants, 2022).

Biological target: T1, Receptor-Like Protein 44 fused to monomeric Turquoise 2 (RLP44-mTRQ2) (UniProt Q9M2Y3 25-274)
T1 construct: Receptor-Like Protein 44 (RLP44); Plasma membrane protein with its own signal peptide; also called RLP44-TRQ2; source: N. benthamiana epidermal leaf cells, transiently transformed, in living cells; not shown: mTRQ2, C-terminal, kept
T1 sequence (looked up): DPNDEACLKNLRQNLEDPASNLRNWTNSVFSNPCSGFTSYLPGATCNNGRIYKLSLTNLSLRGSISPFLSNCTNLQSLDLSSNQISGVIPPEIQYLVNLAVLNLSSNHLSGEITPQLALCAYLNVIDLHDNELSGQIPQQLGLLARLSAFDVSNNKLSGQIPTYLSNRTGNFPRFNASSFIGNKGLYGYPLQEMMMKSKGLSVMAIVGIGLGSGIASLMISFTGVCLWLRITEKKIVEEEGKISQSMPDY
Test: FRET or BRET; FRET-FLIM, fluorescence lifetime of the donor RLP44-mTRQ2 (440 nm pulsed laser, TCSPC), two fusion proteins co-expressed, plasma membrane of living N. benthamiana epidermal leaf cells
Conditions: partners not purified

B1: BRI1 Associated Kinase 1 fused to monomeric red fluorescence protein 1 (BAK1-mRFP) (receptor, UniProt Q94F62 26-615, looked up)
chain: NAEGDALSALKNSLADPNKVLQSWDATLVTPCTWFHVTCNSDNSVTRVDLGNANLSGQLVMQLGQLPNLQYLELYSNNITGTIPEQLGNLTELVSLDLYLNNLSGPIPSTLGRLKKLRFLRLNNNSLSGEIPRSLTAVLTLQVLDLSNNPLTGDIPVNGSFSLFTPISFANTKLTPLPASPPPPISPTPPSPAGSNRITGAIAGGVAAGAALLFAVPAIALAWWRRKKPQDHFFDVPAEEDPEVHLGQLKRFSLRELQVASDNFSNKNILGRGGFGKVYKGRLADGTLVAVKRLKEERTQGGELQFQTEVEMISMAVHRNLLRLRGFCMTPTERLLVYPYMANGSVASCLRERPESQPPLDWPKRQRIALGSARGLAYLHDHCDPKIIHRDVKAANILLDEEFEAVVGDFGLAKLMDYKDTHVTTAVRGTIGHIAPEYLSTGKSSEKTDVFGYGVMLLELITGQRAFDLARLANDDDVMLLDWVKGLLKEKKLEALVDVDLQGNYKDEEVEQLIQVALLCTQSSPMERPKMSEVVRMLEGDGLAERWEEWQKEEMFRQDFNYPTHHPAVSGWIIGDSTSQIENEYPSGPR
notes: BRI1 Associated Kinase 1 (BAK1), co-receptor kinase; also called BAK1-RFP; source: N. benthamiana epidermal leaf cells, transiently transformed, in living cells; not shown: mRFP, C-terminal, kept
For B1, the “fluorescence lifetime of the donor RLP44-mTRQ2 (donor alone about 3.99 ns)” value was 3.54 ns.
